Series [1] deals with MLKL (mixed lineage kinase domain-like) pseudokinase domain, 190-471 (UniProt Q8NB16). As to the kind of experiment: size-exclusion chromatography. The following applies: reference: p-MLKL pseudokinase domain; sites T357,S358,T355,S360. Background: Size exclusion chromatography separates by hydrodynamic size, large species first.
Series [2] has as its target full-length human MLKL (residues 2-471) T357E/S358E mutant (human) (UniProt Q8NB16). As to the kind of experiment: SEC; full-length MLKL (WT or T357E/S358E) co-expressed with RIPK3 kinase domain in Sf21, purified by GST on MLKL, tag cleaved, HiLoad Superdex 200 in SEC buffer; fractions on reducing SDS-PAGE.
Series [3] addresses unphosphorylated human MLKL pseudokinase domain (residues 190-471) (human) (UniProt Q8NB16). Briefly: SEC-SAXS; MLKL pseudokinase domain:Mb27 complex pre-purified on Superdex 75, 50 uL of 5.6 mg/mL, inline Superdex 200 Increase 5/150, 0.2 M NaCl, 20 mM HEPES pH 7.5, 5% v/v glycerol, 283 K.
The target of series [4] is phosphorylated human MLKL (p-MLKL) pseudokinase domain (190-471) (human) (UniProt Q8NB16). As to the kind of experiment: SEC; purified pseudokinase domain on Superdex 200 in 20 mM HEPES pH 7.5, 200 mM NaCl, 5% v/v glycerol.
For series [5] the target is unchanged. As to the kind of experiment: SEC-SAXS; p-MLKL pseudokinase domain, 40 uL of 7.2 mg/mL, inline Superdex 200 Increase 5/150, 0.2 M NaCl, 20 mM HEPES pH 7.5, 5% v/v glycerol, 283 K.
Series [6] concerns the molecule itself. As to the kind of experiment: SEC; full-length MLKL expressed alone in Sf21, purified, HiLoad Superdex 200 in SEC buffer.
Series [7] deals with the molecule itself. Briefly: SEC; full-length MLKL (WT or T357E/S358E) co-expressed with RIPK3 kinase domain in Sf21, purified by GST on MLKL, tag cleaved, HiLoad Superdex 200 in SEC buffer; fractions on reducing SDS-PAGE.

“MLKL (mixed lineage kinase domain-like) pseudokinase domain, 190-471 (from UniProt Q8NB16) λ phosphatase treated p-MLKL”: the “binding against the reference” value in series [1] is on record as “lost”.

“human RIPK3 kinase domain (residues 1-316; C3S, C110A), co-expressed with full-length MLKL (from UniProt Q9Y572 1-316) (domain or fragment)” had a stoichiometry N (RIPK3 per MLKL (1:1)) in series [2] of 1. Consider “unphosphorylated human MLKL pseudokinase domain (residues 190-471) (from UniProt Q8NB16 190-471) (domain or fragment)”, for which the stoichiometry N in series [3] was 2.

In the case of “phosphorylated human MLKL (p-MLKL) pseudokinase domain (190-471) (from UniProt Q8NB16 190-471) (domain or fragment)”, the stoichiometry N in series [4] and in series [5] was 2 each time.

B1: recombinant full-length human MLKL (residues 2-471), wild-type (natural protein, UniProt Q8NB16 2-471, looked up)
chain: ENLKHIITLGQVIHKRCEEMKYCKKQCRRLGHRVLGLIKPLEMLQDQGKRSVPSEKLTTAMNRFKAALEEANGEIEKFSNRSNICRFLTASQDKILFKDVNRKLSDVWKELSLLLQVEQRMPVSPISQGASWAQEDQQDADEDRRAFQMLRRDNEKIEASLRRLEINMKEIKETLRQYLPPKCMQEIPQEQIKEIKKEQLSGSPWILLRENEVSTLYKGEYHRAPVAIKVFKKLQAGSIAIVRQTFNKEIKTMKKFESPNILRIFGICIDETVTPPQFSIVMEYCELGTLRELLDREKDLTLGKRMVLVLGAARGLYRLHHSEAPELHGKIRSSNFLVTQGYQVKLAGFELRKTQTSMSLGTTREKTDRVKSTAYLSPQELEDVFYQYDVKSEIYSFGIVLWEIATGDIPFQGCNSEKIRKLVAVKRQQEPLGEDCPSELREIIDECRAHDPSVRPSVDEILKKLSTFSK
notes: human MLKL, called full-length, residues 2-471; Expressed alone it elutes primarily as monomers with a smaller proportion of tetramers; with Mb27 all as tetramers; also called full-length MLKL; MLKL alone; source: Sf21 insect cells, expressed alone or co-expressed with Mb27, purified (glutathione resin, TEV cleavage, SEC); not shown: GST, N-terminal, cleaved
Turning to B1, the “stoichiometry N” value in series [6] worked out at 4.

B2: full-length human p-MLKL tetramer (wild-type MLKL 2-471 co-expressed with RIPK3 kinase domain) (natural protein, UniProt Q8NB16 2-471, looked up)
chain: ENLKHIITLGQVIHKRCEEMKYCKKQCRRLGHRVLGLIKPLEMLQDQGKRSVPSEKLTTAMNRFKAALEEANGEIEKFSNRSNICRFLTASQDKILFKDVNRKLSDVWKELSLLLQVEQRMPVSPISQGASWAQEDQQDADEDRRAFQMLRRDNEKIEASLRRLEINMKEIKETLRQYLPPKCMQEIPQEQIKEIKKEQLSGSPWILLRENEVSTLYKGEYHRAPVAIKVFKKLQAGSIAIVRQTFNKEIKTMKKFESPNILRIFGICIDETVTPPQFSIVMEYCELGTLRELLDREKDLTLGKRMVLVLGAARGLYRLHHSEAPELHGKIRSSNFLVTQGYQVKLAGFELRKTQTSMSLGTTREKTDRVKSTAYLSPQELEDVFYQYDVKSEIYSFGIVLWEIATGDIPFQGCNSEKIRKLVAVKRQQEPLGEDCPSELREIIDECRAHDPSVRPSVDEILKKLSTFSK
modifications: phosphorylated by co-expressed RIPK3 (sites not printed for the full-length protein); disulfide-linked via C184
notes: human MLKL, called full-length, residues 2-471; The purified tetramer carries sub-stoichiometric RIPK3 kinase domain; also called wild-type p-MLKL tetramer; MLKL (WT):RIPK3; source: Sf21 insect cells, co-expressed with RIPK3 kinase domain, purified (glutathione resin, TEV cleavage, SEC); not shown: GST, N-terminal, cleaved
B2: the “stoichiometry N” value in series [7] amounted to 4.

A word on the stoichiometry N: it is a count of units in the complex or per binding partner.

The values above are taken from publication PMC10603135, “Phosphorylation-dependent pseudokinase domain dimerization drives full-length MLKL oligomerization” (Nature Communications, 2023).
